Reference: patent US20200071424A1 (SHIONOGI, published 2020)
Where two headings read alike, the source gives them in different places.

T1: mouse EL (mouse, UniProt Q9WVG5 21-500)
T1 construct: Heparin extract
T1 sequence (looked up): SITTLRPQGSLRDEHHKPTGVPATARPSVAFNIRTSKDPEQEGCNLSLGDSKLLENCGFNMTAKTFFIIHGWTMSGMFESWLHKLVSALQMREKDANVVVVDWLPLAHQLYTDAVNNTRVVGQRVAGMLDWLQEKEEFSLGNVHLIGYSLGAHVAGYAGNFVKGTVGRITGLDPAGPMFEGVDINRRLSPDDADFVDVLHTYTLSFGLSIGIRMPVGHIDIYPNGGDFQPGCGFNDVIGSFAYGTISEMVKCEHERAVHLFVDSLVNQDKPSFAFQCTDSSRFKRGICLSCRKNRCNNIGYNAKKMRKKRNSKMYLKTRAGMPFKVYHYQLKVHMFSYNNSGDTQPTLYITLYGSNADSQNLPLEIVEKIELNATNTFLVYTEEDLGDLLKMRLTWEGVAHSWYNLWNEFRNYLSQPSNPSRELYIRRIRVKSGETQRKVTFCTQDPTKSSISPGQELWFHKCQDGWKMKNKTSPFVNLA

T2: human [1-157]-mouse chimeric EL (human; mouse, UniProt Q9WVG5 158-500)
T2 construct: Heparin extract, detected by an anti-C2-tag antibody
T2 sequence: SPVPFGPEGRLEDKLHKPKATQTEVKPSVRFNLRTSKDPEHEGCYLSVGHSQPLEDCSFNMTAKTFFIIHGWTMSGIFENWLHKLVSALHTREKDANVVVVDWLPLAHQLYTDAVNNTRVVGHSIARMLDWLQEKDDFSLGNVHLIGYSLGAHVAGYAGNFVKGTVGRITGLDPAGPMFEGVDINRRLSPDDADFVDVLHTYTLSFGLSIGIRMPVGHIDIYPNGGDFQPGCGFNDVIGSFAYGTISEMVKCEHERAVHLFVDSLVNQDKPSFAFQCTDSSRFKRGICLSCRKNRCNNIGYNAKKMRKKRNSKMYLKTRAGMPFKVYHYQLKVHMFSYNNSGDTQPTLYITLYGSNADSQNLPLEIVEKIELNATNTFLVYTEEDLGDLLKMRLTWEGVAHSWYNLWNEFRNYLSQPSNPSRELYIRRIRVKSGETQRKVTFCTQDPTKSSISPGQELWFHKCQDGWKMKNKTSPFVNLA

T3: human [1-305]-mouse chimeric EL (human; mouse, UniProt Q9WVG5 306-500)
T3 construct: Heparin extract, captured or detected by an anti-C2-tag antibody; also called human-mouse chimeric EL
T3 sequence: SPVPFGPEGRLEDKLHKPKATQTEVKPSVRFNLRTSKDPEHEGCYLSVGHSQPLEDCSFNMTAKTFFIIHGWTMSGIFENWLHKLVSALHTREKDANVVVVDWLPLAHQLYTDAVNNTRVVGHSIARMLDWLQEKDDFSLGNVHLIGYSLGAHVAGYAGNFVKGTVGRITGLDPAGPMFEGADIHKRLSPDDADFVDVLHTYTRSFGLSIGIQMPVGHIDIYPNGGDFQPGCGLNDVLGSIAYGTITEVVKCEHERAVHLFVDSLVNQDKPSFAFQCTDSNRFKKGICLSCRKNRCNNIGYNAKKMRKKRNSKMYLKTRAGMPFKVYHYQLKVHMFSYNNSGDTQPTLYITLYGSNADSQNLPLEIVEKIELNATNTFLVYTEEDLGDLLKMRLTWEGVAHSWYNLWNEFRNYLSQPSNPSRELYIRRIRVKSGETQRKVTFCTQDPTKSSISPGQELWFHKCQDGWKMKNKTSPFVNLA


What was measured:
mouse EL = target: T1, mouse EL; assay: ELISA: antibody captured on anti-mouse IgG-Fc plate, EL heparin extract added, detection with biotin anti-C2-tag antibody and HRP-streptavidin, A450
Protocol: (§1) Assay buffer containing 15 μl of anti-EL antibody was added to anti-mouse IgG-Fc antibody-immobilized microtiter plate, and incubated for 2 hr. […] After washing the wells three times with 90 μL of washing buffer, 15 μl of assay buffer containing biotin-labeled anti-C2-tag antibody and HRP-labeled Streptavidin were added to the wells and incubated at room temperature for 1 hr. After washing the wells three times with 90 μL of washing buffer, 15 μL of TMB+—Substrate—Chromogen (DAKO) was added and incubated at room temperature for 30 min and then 15 μL of 0.05 M H2SO₄ was added and absorbance at 450 nm was measured (FIG. 3A to 3K).

baboon EL [1] = target: T4, baboon EL (baboon); assay: as above
T4 construct: Heparin extract
Protocol: as §1

[2] = target: T2, human [1-157]-mouse chimeric EL; assay: as above
Protocol: as §1

cynomolgus monkey EL [3] = target: T5, cynomolgus monkey EL (cynomolgus monkey); assay: as above
T5 construct: Heparin extract; also called cynomolgus EL; Cynomolgus EL
Protocol: as §1

baboon EL [4] = target: T4, baboon EL; assay: Biacore; EL captured by anti-C2-tag Ab; bivalent fit
Protocol: (§2) The binding affinities of anti-EL antibodies were measured using Biacore. […] Then, anti-EL antibodies were added and the binding affinities were calculated by bivalent fitting of BIAevaluation software.

[5] = target: T3, human [1-305]-mouse chimeric EL; assay: as above
Protocol: as §2

cynomolgus monkey EL [6] = target: T5, cynomolgus monkey EL; assay: as above
Protocol: as §2

baboon EL [7] = target: T4, baboon EL; assay: cell-based or functional assay
[8] = target: human-mouse chimeric EL (construct not specified); assay: cell-based or functional assay
cynomolgus monkey EL [9] = target: T5, cynomolgus monkey EL; assay: cell-based or functional assay
cynomolgus monkey EL [10] = target: T5, cynomolgus monkey EL; assay: cell-based or functional assay; remark: listed apart in the source
[11] = target: T3, human [1-305]-mouse chimeric EL; assay: cell-based or functional assay
[12] = target: T3, human [1-305]-mouse chimeric EL; assay: Biacore; EL captured by anti-C2-tag Ab; bivalent fit; remark: listed apart in the source
Protocol: The binding affinities of anti-EL antibodies were measured using Biacore. […] Then, anti-EL humanized antibodies were added and the binding affinities were calculated by bivalent fitting of BIAevaluation software.

| binding result (mouse EL) | EC50 (read off the curve) (baboon EL [1]) [ng/mL] | EC50 (read off the curve) [2] [ng/mL] | EC50 (read off the curve) (cynomolgus monkey EL [3]) [ng/mL] | Kd (baboon EL [4]) [nM] | koff (baboon EL [4]) [s⁻¹] | kon (baboon EL [4]) [M⁻¹ s⁻¹] | Kd [5] [nM] | koff [5] [s⁻¹] | kon [5] [M⁻¹ s⁻¹] | Kd (cynomolgus monkey EL [6]) [nM] | koff (cynomolgus monkey EL [6]) [s⁻¹] | kon (cynomolgus monkey EL [6]) [M⁻¹ s⁻¹] | Neutralizing activity IC50 (baboon EL [7]) [nM] | Neutralizing activity IC50 [8] [nM] | Neutralizing activity IC50 (cynomolgus monkey EL [9]) [nM] | Neutralizing activity IC50 [11] [nM] | Binder | also measured |
| --- | --- | --- | --- | --- | --- | --- | --- | --- | --- | --- | --- | --- | --- | --- | --- | --- | --- | --- |
| no binding (tested: about 330 ng/mL) | ~10 | ~4 | ~5 | 1.2 | 0.00042 | 350000 | 0.73 | 0.00014 | 190000 | 1.7 | 0.00044 | 250000 | 2 | 1.1 | 1.5 | 1.1 | 55A1 (antibody, mouse IgG2a, V domains shown, mouse IgG2a from hybridoma; also called 55A1 (mouse mAb)) VH: QIHLVQSGPELKKPGETVKISCKASGYTFTNYGMNWVKQAPGKGLKWMGWINTYSGVPTYAGDFKGRFAFSLETSASTAYLQINNLKNEDTATYFCARRGYYGRRYFDVWGTGTTVTVSS VL: DIVLTQSPASLAVSLGQRATISCKASQSVDYDVDSYMHWYQQKPGQPPKLLIYAASNLASGIPARFSGGGSGTDFTLNIHPVEEEDVATYYCQQTIEDPPTFGGGTKLEIK | Neutralizing activity IC50 (cynomolgus monkey EL [10]): 1.3 nM |
| – | – | – | – | – | – | – | – | – | – | – | – | – | – | – | – | – | h53A11-S4 (antibody, V domains shown) VH: QVQLVQSGAEVKKPGASVKVSCKASGYTFTDYTMHWVRQAPGQRLEWMGGINPYYGGTTYNEKFKDRVTITRDTSASTAYMELSSLRSEDTAVYYCARGDYYGGSYNYWGQGTTVTVSS VL: EIVMTQSPATLSVSPGERATLSCRASQDISNSLHWYQQKPGQAPRLLIKYASQSISGIPARFSGSGSGTEFTLTISSLQSEDFAVYYCQQSNSWPYTFGQGTKLEIK | Neutralizing activity IC50 (cynomolgus monkey EL [10]): 12 nM |
| no binding (tested: about 330 ng/mL) | – | ~7 | ~20 | 3.3 | 0.00062 | 190000 | 0.5 | 0.0001 | 210000 | 3.9 | 0.00081 | 210000 | 2.7 | 5.8 | 3.1 | – | 14A1 (antibody, mouse IgG1, V domains shown, mouse IgG1 from hybridoma) VH: QIQLVQSGPELKKPGETVKISCKASGYTFTNYGMNWVKQAPGKGLKWMGWINTYSGVPTYADDFKGRFAFSLETSASTAYLQINNFKNEDTATYFCARFSYYGRHYFDYWGQGTALTASS VL: DIVLTQSPASLAVSLGQRATISCKASQSVDYDGDSYMNWYQQKPGQPPKLLIYAASNLKSGIPARFSGSGSGTDFTLNIHPVEEEDAATYYCQQTTDDPPWTFGGGTKLEIK | – |
| no binding (tested: about 330 ng/mL) | ~20 | ~8 | ~10 | 2.2 | 0.00017 | 77000 | 1.1 | 9.3e-05 | 85000 | 3.8 | 0.00028 | 74000 | 2.9 | 2.7 | 3 | – | 2D5 (antibody, mouse IgG2a, V domains shown, mouse IgG2a from hybridoma) VH: QIQLVQSGPELKKPGETVKISCKASGYTFTNYGMNWVKQAPGKGLKWMGWINTYSGVPTYTDDFKGRFAFSLETSASTAFLQINNLKNEDTATYFCARFSYYGRHYFDYWGQGTTLTVSS VL: not shown | – |
| no binding (tested: about 330 ng/mL) | ~9 | ~6 | ~10 | 4.5 | 0.00035 | 78000 | 0.97 | 0.00011 | 110000 | 1.9 | 0.00023 | 120000 | 2.6 | 3.7 | 2.1 | – | 7D4 (antibody, mouse IgG1, V domains shown, mouse IgG1 from hybridoma) VH: QIQLVQSGPELKKPGETVKISCKASGYTFTNYGMNWVKQAPGKDLKWMGWINTYSGVPTYADDFKGRFAFSLETSASTAYLQINNLKNEDTATYFCARFSYYGRHYFDYWGQGTTLTVSS VL: DIVLTQSPASLAVSLGQRATISCKASQSVDYDGDSYMNWYQQKPGQPPQLLIYAASNLGSGIPARFSGSGSGTDFTLNIHPVEEEDAATYYCHQSTDDPPWTFGGGTKLEIK | – |
| – | – | – | – | – | – | – | – | – | – | – | – | – | – | – | – | 2.4 | h55A1-F4 (antibody, V domains shown, humanized) VH: QVQLVQSGAEVKKPGASVKVSCKASGYTFTNYGMNWVRQAPGQGLEWMGWINTYSGVPTYAGDFKGRVTMTTDTSTSTAYMELRSLRSDDTAVYYCARRGYYGRRYFDVWGKGTTVTVSS VL: EIVLTQSPGTLSLSPGERATLSCKASQSVDYDVDSYMHWYQQKPGQAPRLLIYAASNLASGIPDRFSGSGSGTDFTLTISRLEPEDFAVYYCQQTIEDPPTFGGGTKVEIK | Kd [12]: 0.22 nM; koff [12]: 3e-05 s⁻¹; kon [12]: 140000 M⁻¹ s⁻¹ |
| – | – | – | – | – | – | – | – | – | – | – | – | – | – | – | – | 2.3 | h55A1-F6 (antibody, V domains shown, humanized) VH: QVQLVQSGAEVKKPGASVKVSCKASGYTFTNYGMNWVRQAPGQGLEWMGWINTYSGVPTYAGDFKGRFTFTLDTSTSTAYMELSSLRSEDTAVYYCARRGYYGRRYFDVWGKGTTVTVSS VL: EIVMTQSPATLSVSPGERATLSCKASQSVDYDVDSYMHWYQQKPGQAPRLLIYAASNLASGIPARFSGSGSGTEFTLTISSLQSEDFAVYYCQQTIEDPPTFGGGTKVEIK | Kd [12]: 0.3 nM; koff [12]: 4.8e-05 s⁻¹; kon [12]: 160000 M⁻¹ s⁻¹ |
